Assay results: patent US20190248900A1 (Y BIOLOGICS, published 2019)

Columns and labels:
Test in all cases: ELISA
EPYC = target: T1, EPYC (Homo sapiens (Human), UniProt Q99645 20-322)
T1 sequence: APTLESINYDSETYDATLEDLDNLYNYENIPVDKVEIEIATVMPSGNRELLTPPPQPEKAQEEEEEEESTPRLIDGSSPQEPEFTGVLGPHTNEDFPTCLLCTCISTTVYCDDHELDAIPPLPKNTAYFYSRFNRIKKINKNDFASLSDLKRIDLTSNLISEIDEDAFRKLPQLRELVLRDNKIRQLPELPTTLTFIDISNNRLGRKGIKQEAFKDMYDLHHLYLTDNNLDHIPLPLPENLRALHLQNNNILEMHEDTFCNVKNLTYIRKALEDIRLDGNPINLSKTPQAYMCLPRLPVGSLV

WIF1 = target: T2, WIF1 (Homo sapiens (Human), UniProt Q9Y5W5 29-379)
T2 sequence: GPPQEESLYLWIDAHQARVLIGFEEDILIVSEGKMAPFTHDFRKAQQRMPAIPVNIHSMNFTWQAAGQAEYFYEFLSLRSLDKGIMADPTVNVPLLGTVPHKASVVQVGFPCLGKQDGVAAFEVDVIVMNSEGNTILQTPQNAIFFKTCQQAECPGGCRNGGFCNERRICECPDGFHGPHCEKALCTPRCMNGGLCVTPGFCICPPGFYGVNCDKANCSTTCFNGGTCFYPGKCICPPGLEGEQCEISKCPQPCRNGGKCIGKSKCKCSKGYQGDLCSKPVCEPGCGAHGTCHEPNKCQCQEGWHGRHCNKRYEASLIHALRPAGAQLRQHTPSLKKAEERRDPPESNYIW

DKK1 = target: T3, DKK1 (Homo sapiens (Human), UniProt O94907 32-266)
T3 sequence: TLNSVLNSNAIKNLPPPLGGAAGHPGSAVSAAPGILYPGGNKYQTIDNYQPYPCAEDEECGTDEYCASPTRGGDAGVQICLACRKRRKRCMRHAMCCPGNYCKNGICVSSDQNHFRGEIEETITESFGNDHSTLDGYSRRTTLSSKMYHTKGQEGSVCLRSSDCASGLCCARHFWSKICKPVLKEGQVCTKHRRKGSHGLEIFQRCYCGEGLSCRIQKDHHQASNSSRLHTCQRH

CFC1 = CFC1 (Homo sapiens (Human), UniProt P0CG37 26-158)
Sequence of CFC1 (P0CG37 26-158 limits assumed): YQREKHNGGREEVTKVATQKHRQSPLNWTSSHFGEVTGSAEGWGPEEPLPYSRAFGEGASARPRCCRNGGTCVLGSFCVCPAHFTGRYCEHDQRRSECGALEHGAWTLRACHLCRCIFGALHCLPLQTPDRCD

SCARF1 = target: T4, SCARF1 (Homo sapiens (Human), UniProt Q14162 20-421)
T4 sequence: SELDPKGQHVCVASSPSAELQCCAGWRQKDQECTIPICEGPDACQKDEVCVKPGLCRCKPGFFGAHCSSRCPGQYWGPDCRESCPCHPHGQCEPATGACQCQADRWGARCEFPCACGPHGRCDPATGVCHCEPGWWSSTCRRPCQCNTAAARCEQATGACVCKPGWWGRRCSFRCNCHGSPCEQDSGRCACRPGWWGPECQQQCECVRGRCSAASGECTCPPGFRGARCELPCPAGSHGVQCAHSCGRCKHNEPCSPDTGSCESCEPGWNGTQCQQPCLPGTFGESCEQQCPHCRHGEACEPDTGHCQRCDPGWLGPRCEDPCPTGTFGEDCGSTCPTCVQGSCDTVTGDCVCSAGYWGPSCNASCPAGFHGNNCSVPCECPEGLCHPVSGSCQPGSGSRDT

SUSD1 = SUSD1 (Homo sapiens (Human), UniProt Q6UWL2 30-721)
Sequence of SUSD1 (Q6UWL2 30-721 limits assumed): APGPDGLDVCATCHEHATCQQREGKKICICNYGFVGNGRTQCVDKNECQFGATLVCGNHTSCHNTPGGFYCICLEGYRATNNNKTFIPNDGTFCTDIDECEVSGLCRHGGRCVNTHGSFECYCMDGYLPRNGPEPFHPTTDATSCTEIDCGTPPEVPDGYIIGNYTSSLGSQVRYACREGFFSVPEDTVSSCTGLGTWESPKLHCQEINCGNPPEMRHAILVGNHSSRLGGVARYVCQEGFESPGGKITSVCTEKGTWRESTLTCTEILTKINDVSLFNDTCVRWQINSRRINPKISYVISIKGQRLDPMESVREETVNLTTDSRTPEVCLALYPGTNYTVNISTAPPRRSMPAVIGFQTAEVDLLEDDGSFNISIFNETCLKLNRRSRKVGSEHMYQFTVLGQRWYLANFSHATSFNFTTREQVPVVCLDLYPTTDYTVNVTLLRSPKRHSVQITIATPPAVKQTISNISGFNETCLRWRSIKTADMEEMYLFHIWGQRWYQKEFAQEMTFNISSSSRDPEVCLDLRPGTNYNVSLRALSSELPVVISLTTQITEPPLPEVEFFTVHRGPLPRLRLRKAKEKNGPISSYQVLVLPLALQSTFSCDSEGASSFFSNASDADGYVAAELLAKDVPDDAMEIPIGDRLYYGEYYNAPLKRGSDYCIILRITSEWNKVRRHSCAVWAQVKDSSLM

TNFSF8 = target: T5, TNFSF8 (Homo sapiens (Human), UniProt P32971 63-234)
T5 sequence: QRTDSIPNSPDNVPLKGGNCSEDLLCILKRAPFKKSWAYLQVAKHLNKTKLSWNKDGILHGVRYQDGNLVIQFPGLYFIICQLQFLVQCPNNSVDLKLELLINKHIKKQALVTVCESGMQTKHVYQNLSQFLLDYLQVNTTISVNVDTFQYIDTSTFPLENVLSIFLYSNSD

C2orf28 = target: T6, C2orf28 (Homo sapiens (Human), UniProt Q6UW56 31-199)
T6 sequence: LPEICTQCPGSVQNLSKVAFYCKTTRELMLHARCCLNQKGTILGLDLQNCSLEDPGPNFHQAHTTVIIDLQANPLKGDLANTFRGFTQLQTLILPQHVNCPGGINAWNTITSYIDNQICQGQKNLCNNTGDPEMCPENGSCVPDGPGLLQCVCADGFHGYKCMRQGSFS

TLR3 = TLR3 (Homo sapiens (Human), UniProt O15455 24-704)
SLITRK2 = target: T7, SLITRK2 (Homo sapiens (Human), UniProt Q9H156 22-621)
T7 sequence: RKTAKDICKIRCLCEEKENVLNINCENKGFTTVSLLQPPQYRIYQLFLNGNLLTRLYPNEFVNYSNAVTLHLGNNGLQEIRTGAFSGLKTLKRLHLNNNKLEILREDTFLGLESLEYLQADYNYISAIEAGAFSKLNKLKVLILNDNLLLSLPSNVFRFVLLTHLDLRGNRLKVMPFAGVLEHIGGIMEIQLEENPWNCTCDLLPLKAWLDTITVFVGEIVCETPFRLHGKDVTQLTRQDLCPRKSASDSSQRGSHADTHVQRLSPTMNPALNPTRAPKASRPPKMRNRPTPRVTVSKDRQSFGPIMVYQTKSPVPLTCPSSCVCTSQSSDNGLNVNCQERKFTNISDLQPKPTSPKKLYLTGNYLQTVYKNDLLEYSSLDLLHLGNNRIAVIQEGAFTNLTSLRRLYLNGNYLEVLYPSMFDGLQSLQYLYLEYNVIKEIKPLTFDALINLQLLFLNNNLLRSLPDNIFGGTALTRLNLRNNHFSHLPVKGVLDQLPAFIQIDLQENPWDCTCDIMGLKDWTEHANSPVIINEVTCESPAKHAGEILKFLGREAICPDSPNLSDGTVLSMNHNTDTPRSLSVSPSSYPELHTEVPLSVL

Measured: binding result

B1: PD1-45D6 (antibody, V domains shown)
VH: QVQLVESGGGVVQPGRSLRLSCAASGFTFSSYAMHWVRQVPGKGLEWVAVISYDGNDKYYADSVKGRFTISRDNSKNTLYLQMNSLRAEDTAVYYCVPTTFEYWGQGSQVTVSS
VL: DIVMTQTPLSLPVTPGEAASISCRSSQSLLDSDDGKTYLDWYLQKPGQSPQLLIYTLSYRASGVPDRFSGSGSGTEFNLRISRVEAEDVGIYYCMQRVEFPFTFGQGTKLDIK
notes: scFv-phage in the screening ELISA; whole IgG in the other assays
no binding (tested: 1 ug/ml): EPYC | WIF1 | DKK1 | CFC1 | SCARF1 | SUSD1 | TNFSF8 | C2orf28 | TLR3 | SLITRK2

B2: PD1-41C9 (antibody, V domains shown)
VH: QMQLVESGGGVVQPGRSLRLSCAASGFTFSSYAMHWVRQAPGKGLEWVAVISYDGSNKYYADSVKGRFTISRDNSKNTLYLQMNRLRSEDTAVYYCTTTTFDSWGQGTLITVSS
VL: DIVMTQTPLSLPVTPGEAASISCRSSQSLLDSEDGNTYLDWYLQKPGQSPQLLIYTLSHRASGVPDRFSGSGSGTDFTLKISRVAAEDVGLYYCLQRMGFPYTFGQGTKLDIK
notes: as for B1
no binding (tested: 1 ug/ml): EPYC | WIF1 | DKK1 | CFC1 | SCARF1 | SUSD1 | TNFSF8 | C2orf28 | TLR3 | SLITRK2

B3: PD1-49A2 (antibody, V domains shown)
VH: QVQLVESGGGVVQPGRSLRLSCAASGFTFSSYAMHWVRQAPGKGLEWVAVISYDGSNKYYADSVKGRFTISRDNPKNTLYLQMNSLRAEDTAVYYCTTTTFDSWGRGTLVTVSS
VL: DIVMTQSPLSLPVTPGEPASISCRSSQSLFDSDDGNTYLDWYLQKPGQSPQLLIYTLSHRASGVPDRFSGSGSGTDFTLKISRVEAEDVGIYYCLQRMGFPYTFGQGTKVEIK
notes: scFv-phage in the screening ELISA; whole IgG in the other assays; also called Parent 49A2
no binding (tested: 1 ug/ml): EPYC | WIF1 | DKK1 | CFC1 | SCARF1 | SUSD1 | TNFSF8 | C2orf28 | TLR3 | SLITRK2
